From patent publication US20200339680A1 (Alector, published 2020) come the findings set out here.

The target of assay [1] is T1, GST Fusion human TMEM106B ECD (Truncated) (human).
T1 construct: also called GST-TMEM106B-truncated protein; GST-TMEM106B (truncated)
Briefly: SPR array; SPR kinetics, Table 5, first of two listed runs. (In general: SPR reads the build-up and loss of mass on a sensor chip optically.)
Description: (§1) Binding kinetic characterization of the purified antibodies was performed by Carterra using a proprietary array SPR instrument (MX-96) as follows. Briefly, antibodies were prepared by diluting to 5 μg/ml in 10 mM Acetate, pH 4.5 (Carterra), at 150 μL/well and then made an additional dilution at 1:10 from there by titrating 11 μL into 100 μL. […] The chip was activated with 18 mM EDC (Sigma Bioxtra) and 4.5 mM S—NHS (Thermo Fisher) diluted in 100 mM MES, pH 5.5, for 7 minutes, and then antibodies were coupled for 10 minutes at 45 μL/minute. After coupling, the chip was returned to the MX-96 and quenched for 7 minutes using 1 M Ethanolamine pH 8.5 (Carterra).
(§2) Printed antibodies were profiled for their ability to bind GST-TMEM106B (truncated) protein (described above). Briefly, GST-TMEM106B (truncated) antigen was diluted to 18 μg/ml (500 nM of 36 kDa fusion protein) by mixing 2.7 μL of 2.0 mg/ml antigen into 298 μL Running buffer (HBS-EP+, Teknova with 1 mg/ml BSA, Sigma), and titrated 50 μl into 200 μl for 5-fold serial dilutions. […] Duplicate measurements for each anti-TMEM106B antibody were taken to ensure reproducibility.

Assay [2] has as its target T2, human TMEM106B (human, UniProt Q9NUM4 2-274).
T2 construct: full-length, transiently expressed on HEK293 cells, or natively expressed on HeLa, U251 and A549 cells (the cell is named under assay); also the source of the Pepscan peptides; also called huTMEM106B; huTMEM
Description: FACS U251.
Description: (§3) All cells were cultured in either T75 or T150 flasks. […] The enzyme was quenched by addition of fresh media, and the cells were then distributed into 96-well plates for FACS analysis.
(§4) FACS analysis was performed as follows. Each cell type was aliquoted in 96-well round bottom plates (2×10^5 cells per well), washed once with FACS buffer (PBS+2% FBS+1 mM EDTA), and incubated with 50 μL of hybridoma supernatant or purified antibody (10 μg/ml in FACS buffer) on ice for 1 hour. […] Following this secondary incubation, the cells were again washed 2× with ice-cold FACS buffer and resuspended in a final volume of 50 μL of FACS buffer+0.25 μl/well propidium iodide (Fisher Scientific #4BDB556463). Analysis was performed on a FACSCanto system (BD Biosciences) or iQue (Intellicyt), with sort gates drawn to exclude dead (i.e., propidium iodide positive) cells.

Assay [3] has as its target T2, human TMEM106B. Description: FACS HEK+huTMEM 10 ug/ml.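 Note: flow cytometric binding of purified mouse IgG antibodies to HEK293 cells transiently expressing human TMEM106B, read as median fluorescence intensity on live cells with propidium iodide-positive cells excluded.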
Description: Purified anti-TMEM106B antibodies were evaluated for their binding affinity to various TMEM106B-expressing cell lines including HEK293 transiently transfected with human/cyno/mouse TMEM106B, as well as HeLa cells and A549 cells. Antibodies tested for this experiment were mouse IgGs purified from hybridoma supernatant. Affinity binding to cells was determined as follows. Briefly, 1×10\hat{ }5 cells were aliquoted per well in 96-well round bottom plates and incubated with 50 μL of purified anti-TMEM106B antibody at various concentrations (10× dilutions starting at 10 μg/ml) in FACS buffer (PBS+2% FBS+1 mM EDTA). […] Sorting was performed on a iQue (Intellicyt), with sort gates drawn to exclude dead (propidium iodide+) cells. Binding data was analyzed using median fluorescent intensity (MFI) and graphed in Prism. Values presented are MFI.
The target in assay [4] is T1, GST Fusion human TMEM106B ECD …. Description: SPR array; SPR kinetics, Table 5, second of two listed runs.
Description: as §1
Printed antibodies were profiled for their ability to bind GST-TMEM106B (truncated) protein (described above). Briefly, GST-TMEM106B (truncated) antigen was diluted to 18 μg/ml (500 nM of 36 kDa fusion protein) by mixing 2.7 μL of 2.0 mg/ml antigen into 298 μL Running buffer (HBS-EP+, Teknova with 1 mg/ml BSA, Sigma), and titrated 50 μl into 200 μl for 5-fold serial dilutions. In addition, binding to GST (Pierce) was assayed under the same conditions to determine the extent of any non-specific binding of the anti-TMEM106B antibodies to GST portion of the TMEM106B-GST fusion protein. Duplicate measurements for each anti-TMEM106B antibody were taken to ensure reproducibility.
Assay [5] deals with T2, human TMEM106B. Description: FACS A549 1 ug/ml.
The target in assay [6] is T1, GST Fusion human TMEM106B ECD …. Description: SPR array.
Description: as §1, §2
The target of the next assay is T3, mouse TMEM106B (mouse, UniProt Q80X71 2-275).
T3 construct: transiently expressed on HEK293 cells, or native on mouse Neuro2a cells; also called moTMEM106B; murine TMEM106B
Description: FACS Neuro2a.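 Note: flow cytometry of antibody binding to cells: hybridoma supernatant or purified antibody at 10 µg/ml, 1 h on ice, secondary detection, propidium iodide–positive dead cells gated out.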

For assay [7], the target named is T2, human TMEM106B. Briefly: FACS HEK+huTMEM 1.0 ug/ml.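 Note: binding of purified mouse IgG antibodies to HEK293 cells transiently expressing human TMEM106B, read by flow cytometry as median fluorescence intensity of live, propidium iodide-negative cells.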
Assay [8] has as its target T2, human TMEM106B. Description: FACS A549 10 ug/ml.
The target of assay [9] is T2, human TMEM106B. Description: FACS HEK+huTMEM 0.1 ug/ml (2nd column so headed).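 Note: flow cytometry binding of purified anti-TMEM106B mouse IgG to HEK293 cells transiently transfected with TMEM106B, read as median fluorescence intensity on live (propidium iodide-negative) cells.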
Assay [10] concerns the target T2, human TMEM106B. Briefly: FACS A549.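 Note: flow cytometry of cells incubated on ice for 1 h with hybridoma supernatant or purified antibody at 10 µg/mL, dead propidium iodide-positive cells gated out.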
Description: as §3, §4
The target in assay [11] is T1, GST Fusion human TMEM106B ECD …. Briefly: SPR array; SPR kinetics, Table 5, first of two listed runs (KD 4.70E-07 M).
Description: as §1, §2
Assay [12] concerns the target T2, human TMEM106B. Briefly: FACS HEK+huTMEM 0.1 ug/ml.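 Note: flow cytometry binding of purified mouse IgG antibodies to HEK293 cells transiently expressing TMEM106B, read as median fluorescence intensity on live cells (propidium iodide negative gating).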
Assay [13] has as its target T1, GST Fusion human TMEM106B ECD …. Description: SPR array; SPR kinetics, Table 5, second of two listed runs (KD 2.90E-08 M).
Description: as §1, §2
Assay [14] deals with T2, human TMEM106B. Briefly: FACS HeLa.
The target in assay [15] is T1, GST Fusion human TMEM106B ECD …. Briefly: SPR array; SPR kinetics, Table 5, first of two listed runs; weak binder.
Description: as §1, §2

B1: TM-16 (antibody, V domains shown)
VH: EVQLQQSGAELVRPGASVKLSCTTSGFNIKDYYMHWVKQRTEQGLEWIGRIDPEDGETKYAPEFQGKATITSDTSSNTAFLQLSSLTSEDTAVYYCASSQPFTYWGQGTLVTVSA
VL: QIVLTQSPAIMSASPGEKLTMTCSASSSLNYMYWYQQKPGSSPRLLIYDTSNLASGVPVRFSGSGSGTSYSLTISRMEAEDGATYYCQQWTSFPPTFGAGTKLELK
For orientation: koff means the rate constant with which the complex falls apart. As usually defined, the Kd is the free concentration of one partner at which half of the binding sites on the other are occupied at equilibrium, for simple one-to-one binding. A lower Kd goes with higher affinity. Broadly, the kon is a measure of how fast the partners come together. As to B1, the koff in [1] worked out at 0.0031 s⁻¹; in assay [4], 0.00095 s⁻¹. The MFI with human TMEM106B [2] amounted to 292 MFI; in the assay with human TMEM106B [3], 5980 MFI; with human TMEM106B [5], 409 MFI; with mouse TMEM106B it was 392 MFI; with human TMEM106B [7], 2140 MFI; in the assay with human TMEM106B [8] it was 557 MFI. In addition, the MFI in the assay with human TMEM106B [9] stood at 351 MFI; with human TMEM106B [10] it was 605 MFI; in the assay with human TMEM106B [12] it was 680 MFI; in the assay with human TMEM106B [14] it was 548 MFI. The Kd in assay [6] was determined as 29 nM; in [15], 470 nM. Also, the figures for the kon in assay [11] and in [13] were 6500 M⁻¹ s⁻¹ and 33000 M⁻¹ s⁻¹, respectively.

B2: TM-52 (antibody, V domains shown)
VH: QVQLQQPGAELVKPGASVKLSCKASGYTFTNYWMHWVKQRPGQGLDWIGNIDPSDSETHYNQKFKDKATLTVDKVSSTAYMQLSSLTSEDSAVYYCARRGYYGRSPFAYWGQGTLVTVSA
VL: ENVLTQSPAIMSASPGEKVTMTCSASSSVSYMHWYQQKSNTSPKLWIYDTSKLASGVPGRFSGSGSGNSYSLTISSAEAEDVATYYCFQGSGYPLTFGAGTKLELK
notes: mouse IgG (hybridoma)
Take B2: the MFI was determined as 341 MFI with human TMEM106B [2]; 7020 MFI with human TMEM106B [3]; 401 MFI with human TMEM106B [5]; 210 MFI with mouse TMEM106B; 8200 MFI in the assay with human TMEM106B [7]; 443 MFI with human TMEM106B [8]. The MFI came out at 451 MFI with human TMEM106B [9], 987 MFI in the assay with human TMEM106B [10], 1940 MFI with human TMEM106B [12] and 227 MFI in the assay with human TMEM106B [14].

B3: TM-50 (antibody, V domains shown)
VH: QVQLKESGPVLVAPSQSLSITCTVSGFSLTNYGVHWVRQPPGKGLEWLGVIWAGGNTNYNSALMSRLSISKDNSKSQVFLKMNSLQTDDTAMYYCAKEAKLLRSYAMDYWGQGTLVTVSA
VL: DVQMTQTTSSLSASLGDRVTISCRASQDINNYLYWYQQKPDGTVKLLIYYTSMLHSGVPSRFSGSGSGTDYSLTISNLEQEDIATYFCQQGSTLMYTFGGGTKLEIK
notes: mouse IgG (hybridoma)
With B3, the MFI with human TMEM106B [2] came to 260 MFI; in the assay with human TMEM106B [3], 396 MFI; with human TMEM106B [5] it was 381 MFI; with mouse TMEM106B, 257 MFI; with human TMEM106B [7], 314 MFI; with human TMEM106B [8] it was 445 MFI. The MFI came to 294 MFI with human TMEM106B [9], 580 MFI with human TMEM106B [10], 305 MFI with human TMEM106B [12] and 159 MFI in the assay with human TMEM106B [14].
